Laboratory results published in PMC8072984.

What was measured:
[1] = target: sapC-PUMA chimera (saposin C linked to the BH3 domain of PUMA); assay: NMR titration; [1H-15N]-SOFAST-HMQC at 298 K, 600 MHz; 15N-labelled chimera at 100 µM mixed with unlabeled Bcl-xL-ΔTM (stock 900 µM, pH 6.8) at chimera:Bcl-xL molar ratios 1:0, 1:0.5, 1:1, 1:2; 10% D2O; slow exchange, the upper limit of KD estimated from the chemical shift difference assuming diffusion-controlled kon
[2] = target: Bcl-xL (Homo sapiens) (UniProt Q07817); assay: isothermal titration calorimetry; details: cited from earlier work
Bcl-xL (Homo sapiens), sequence (Q07817 whole entry): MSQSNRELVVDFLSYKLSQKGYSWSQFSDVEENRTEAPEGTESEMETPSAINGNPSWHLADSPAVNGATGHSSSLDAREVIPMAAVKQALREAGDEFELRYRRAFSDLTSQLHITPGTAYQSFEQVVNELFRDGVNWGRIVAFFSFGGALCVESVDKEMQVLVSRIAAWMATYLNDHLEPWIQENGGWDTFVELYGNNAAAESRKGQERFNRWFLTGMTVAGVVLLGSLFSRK

sapC-PUMA chimera (saposin C linked to the BH3 domain of PUMA), sequence (P07602 other isoform, or with tags, fused parts or gaps mutant): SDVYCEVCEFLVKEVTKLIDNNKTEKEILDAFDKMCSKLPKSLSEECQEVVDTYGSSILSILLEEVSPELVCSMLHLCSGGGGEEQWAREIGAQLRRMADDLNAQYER
PUMA BH3, sequence (Q9BXH1 130-156): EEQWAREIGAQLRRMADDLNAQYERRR

| stoichiometry N [1] | Substance | Kd [2] [nM] |
| --- | --- | --- |
| 1 | Human Bcl-xL-ΔTM (native amino acid sequence without the transmembrane domain) (domain or fragment) | – |
| – | PUMA BH3 (from UniProt Q9BXH1) | 3 |
